Article PMC6643034, “A knottin scaffold directs the CXC-chemokine–binding specificity of tick evasins” (The Journal of Biological Chemistry, 2019)

B1: P942_IXORI (natural protein)
chain: NQLSGPQSSANSNEAVFCDTNCTQGTDEAWSGCRGDCFCVYVGNSTEGRCMMLSGDFDYSTPGAED
notes: evasin P942, mature peptide, 66 residues; N-terminal DGG expected after signal peptide cleavage; glycosylated
B2: P1078_IXORI (natural protein)
chain: GSKGSSAQQSSHDSIKAEFCETNCTMKTGGKWTQCHGGCFCVHVGNETVGRCIKLDGDYDYPSSKHEE
notes: evasin P1078, mature peptide, 68 residues; N-terminal DGG expected after signal peptide cleavage; glycosylated
B3: P1086_IXORI (natural protein)
chain: GSKGQRASQVSETSITAEFCDTSCTQGTDKTWSGCSGDCFCVHVGNDTEGRCMRWDGDYPSAEEEE
notes: evasin P1086, mature peptide, 66 residues; N-terminal DGG expected after signal peptide cleavage; glycosylated
B4: P1100_IXORI (natural protein)
chain: GSKGSSASQSSDNSVVAKFCDTNCTINEGGKWTECKGGCFCVHVGNETVGRCMKLDGDYDYPSPKPEE
notes: evasin P1100, mature peptide, 68 residues; N-terminal DGG expected after signal peptide cleavage; glycosylated
B5: EVA3_RHISA (natural protein)
chain: LVSTIESRTSGDGADNFDVVSCNKNCTSGQNECPEGCFCGLLGQNKKGHCYKIIGNLSGEPPVVRR
notes: N-terminal DGG expected after signal peptide cleavage; glycosylated; also called evasin 3; Evasin-3
B6: CXCL11 (ligand, human, UniProt O14625 22-94, looked up)
chain: FPMFKRGRCLCIGPGVKAVKVADIEKASIMYPSNNCDKIEVIITLKENKGQRCLNPKSKQARLIIKKVERKNF
notes: human CXCL11
B7: CXCL13 (ligand, human, UniProt O43927 23-109, looked up)
chain: VLEVYYTSLRCRCVQESSVFIPRRFIDRIQILPRGNGCPRKEIIVWKKNKSIVCVDPQAEWIQRMMEVLRKRSSSTLPVPVFKRKIP
notes: human CXCL13
B8: P1126_AMBCA (natural protein)
chain: KPQILQRTDKSTDSEWDPQTCPETCIPSKNITCSDGCVCVKLGEEEEGTCFNMTGVDWLGSPSDD
notes: evasin P1126, mature peptide, 65 residues; N-terminal DGG expected after signal peptide cleavage; glycosylated
B9: P1142_AMBCA (natural protein)
chain: KPQILQRTDHSTDSDWDPQMCPETCNPSKNISCSSECLCVTLGGGDETGTCFNMSGVDWLGHAQASDGHNDG
notes: evasin P1142, mature peptide, 72 residues; N-terminal DGG expected after signal peptide cleavage; glycosylated
B10: Evasin 3 (EVA3) (natural protein)
chain: DGGLVSTIESRTSGDGADNFDVVSCNKNCTSGQNECPEGCFCGLLGQNKKGHCYKIIGNLSGEPPVVRR
modifications: also: glycosylated
notes: residues expected at the N terminus after cleavage of the Igκ signal peptide (SignalP 3.0); Evasin-3 (EVA3_RHISA), Rhipicephalus sanguineus, mature peptide; class I founder; also called EVA3_RHISA; WT EVA3; source: HEK293F, transiently transfected, secreted; purified (nickel IMAC, SEC)

Legend:
Conditions in all cases: both partners purified
CXCL10 [1] = target: T1, CXCL10 (human, UniProt P02778 22-98); experiment: BLI; cross-binding screen on OctetRed; evasin held on a nickel-coated biosensor through its C-terminal His tag; each human chemokine at 300 nM
T1 construct: human CXCL10

CXCL13 = target: B7; experiment: as above
CXCL2 [2] = target: T2, CXCL2 (human, UniProt P19875 35-107); experiment: as above
T2 construct: human CXCL2

CXCL11 [3] = target: B6; experiment: as above
CXCL3 [4] = target: T3, CXCL3 (human, UniProt P19876 35-107); experiment: as above
T3 construct: human CXCL3

CXCL1 [5] = target: T4, CXCL1 (human, UniProt P09341 35-107); experiment: as above
T4 construct: human CXCL1

CXCL2 [6] = target: T2, CXCL2; experiment: as above; remark: listed apart in the source
CXCL3 [7] = target: T3, CXCL3; experiment: as above; remark: listed apart in the source
CXCL1 [8] = target: T4, CXCL1; experiment: as above; remark: listed apart in the source
P1080_IXORI = target: T5, P1080_IXORI (Ixodes ricinus, UniProt A0A090XBL6 20-118); experiment: as above
T5 construct: evasin P1080, mature peptide, 99 residues; N-terminal DGG expected after signal peptide cleavage; glycosylated

CXCL10 [9] = target: T1, CXCL10; experiment: as above; remark: listed apart in the source
CXCL2 [10] = target: T2, CXCL2; experiment: as above; remark: listed apart in the source
CXCL11 [11] = target: B6; experiment: as above; remark: listed apart in the source
CXCL3 [12] = target: T3, CXCL3; experiment: as above; remark: listed apart in the source
CXCL1 [13] = target: T4, CXCL1; experiment: as above; remark: listed apart in the source
CXCL3 [14] = target: T6, CXCL3 (human, UniProt P19876 35-107); experiment: BLI; OctetRed; parental evasins and domain-swap hybrids held by the His tag; titration with chemokine from 600 to 0.4 nM; fit criterion R2 ≥ 0.89, five (in four cases four) concentrations
T6 construct: human CXCL3 of the panel of human chemokines used for biolayer interferometry

CXCL2 [15] = target: T7, CXCL2 (human, UniProt P19875 35-107); experiment: as above
T7 construct: human CXCL2 of the panel of human chemokines used for biolayer interferometry

Measured: binding result

T5 sequence (A0A090XBL6 20-118): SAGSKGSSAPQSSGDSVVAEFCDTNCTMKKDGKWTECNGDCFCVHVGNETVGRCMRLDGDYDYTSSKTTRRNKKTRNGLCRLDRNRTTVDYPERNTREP

B1
binds: CXCL10 [1] | CXCL13 | CXCL2 [2] | CXCL11 [3] | CXCL3 [4] | CXCL1 [5]

B2
binds: CXCL13 | CXCL2 [2] | CXCL11 [3] | CXCL3 [4] | CXCL1 [5]

B3
binds: CXCL10 [1] | CXCL13 | CXCL2 [2] | CXCL3 [4] | CXCL1 [5]

B4
binds: CXCL10 [1] | CXCL13 | CXCL2 [2] | CXCL11 [3] | CXCL3 [4] | CXCL1 [5]

B5
binds: CXCL2 [6] | CXCL3 [7] | CXCL1 [8]

B6
binds: P1080_IXORI

B7
binds: P1080_IXORI

B8
binds: CXCL10 [9] | CXCL2 [10] | CXCL11 [11] | CXCL3 [12] | CXCL1 [13]

B9
binds: CXCL10 [9] | CXCL2 [10] | CXCL11 [11] | CXCL3 [12] | CXCL1 [13]

B10
binds: CXCL3 [14] | CXCL2 [15]
